Where a chain is given by its changes, count along the chain named.
B1: T0263018B11 S31P (VHH, name in Kabat numbering)
VHH: EVQLVESGGGVVQPGGSLRLSCAASGFTFSPYAMYWVRQAPGKGLEWVSAISSGGGSTDYADSVKGRFTISRDNSKNTLYLQMNSLRPEDTALYYCAADTLYTSLTWYSYWGQGTLVTVSS
notes: FLAG3-His6 tagged
B2: T0263018B11 S56H (VHH, name in Kabat numbering)
VHH: B1 VHH with P31S, S57H
notes: FLAG3-His6 tagged
B3: T0263018B11 S52R (VHH, name in Kabat numbering)
VHH: B1 VHH with P31S, S52R
notes: FLAG3-His6 tagged
B4: T0263018B11 S52aY (VHH, name in Kabat numbering)
VHH: B1 VHH with P31S, S53Y
notes: FLAG3-His6 tagged
B5: T0263018B11 S52aP (VHH, name in Kabat numbering)
VHH: B1 VHH with P31S, S53P
notes: FLAG3-His6 tagged
B6: T0263018B11 S56V (VHH, name in Kabat numbering)
VHH: B1 VHH with P31S, S57V
notes: FLAG3-His6 tagged
B7: T0263018B11 S31Q (VHH, name in Kabat numbering)
VHH: B1 VHH with P31Q
notes: FLAG3-His6 tagged
B8: T0263018B11 S52aG (VHH, name in Kabat numbering)
VHH: B1 VHH with P31S, S53G
notes: FLAG3-His6 tagged
B9: T0263018B11 S52aE (VHH, name in Kabat numbering)
VHH: B1 VHH with P31S, S53E
notes: FLAG3-His6 tagged
B10: T0263018B11 S52aR (VHH, name in Kabat numbering)
VHH: B1 VHH with P31S, S53R
notes: FLAG3-His6 tagged
B11: T0263018B11 S56Q (VHH, name in Kabat numbering)
VHH: B1 VHH with P31S, S57Q
notes: FLAG3-His6 tagged
B12: T0263018B11 S52aN (VHH, name in Kabat numbering)
VHH: B1 VHH with P31S, S53N
notes: FLAG3-His6 tagged
B13: T0263018B11 S56T (VHH, name in Kabat numbering)
VHH: B1 VHH with P31S, S57T
notes: FLAG3-His6 tagged
B14: T0263018B11 S56L (VHH, name in Kabat numbering)
VHH: B1 VHH with P31S, S57L
notes: FLAG3-His6 tagged
B15: T0263018B11 S52P (VHH, name in Kabat numbering)
VHH: B1 VHH with P31S, S52P
notes: FLAG3-His6 tagged
B16: T0263018B11 S52aW (VHH, name in Kabat numbering)
VHH: B1 VHH with P31S, S53W
notes: FLAG3-His6 tagged
B17: T0263018B11 S52G (VHH, name in Kabat numbering)
VHH: B1 VHH with P31S, S52G
notes: FLAG3-His6 tagged
B18: T0263018B11 S56A (VHH, name in Kabat numbering)
VHH: B1 VHH with P31S, S57A
notes: FLAG3-His6 tagged
B19: T0263018B11 S52aT (VHH, name in Kabat numbering)
VHH: B1 VHH with P31S, S53T
notes: FLAG3-His6 tagged
B20: T0263018B11 S52aV (VHH, name in Kabat numbering)
VHH: B1 VHH with P31S, S53V
notes: FLAG3-His6 tagged
B21: T0263018B11 S52H (VHH, name in Kabat numbering)
VHH: B1 VHH with P31S, S52H
notes: FLAG3-His6 tagged
B22: T0263018B11 S52D (VHH, name in Kabat numbering)
VHH: B1 VHH with P31S, S52D
notes: FLAG3-His6 tagged
B23: T0263018B11 S52aA (VHH, name in Kabat numbering)
VHH: B1 VHH with P31S, S53A
notes: FLAG3-His6 tagged
B24: T0263018B11 S52T (VHH, name in Kabat numbering)
VHH: B1 VHH with P31S, S52T
notes: FLAG3-His6 tagged
B25: T0263018B11 S52V (VHH, name in Kabat numbering)
VHH: B1 VHH with P31S, S52V
notes: FLAG3-His6 tagged
B26: T0263018B11 S52aM (VHH, name in Kabat numbering)
VHH: B1 VHH with P31S, S53M
notes: FLAG3-His6 tagged
B27: T0263018B11 S52Q (VHH, name in Kabat numbering)
VHH: B1 VHH with P31S, S52Q
notes: FLAG3-His6 tagged
B28: T0263018B11 S100K (VHH, name in Kabat numbering)
VHH: B1 VHH with P31S, S104K
notes: FLAG3-His6 tagged
B29: T0263018B11 S56K (VHH, name in Kabat numbering)
VHH: B1 VHH with P31S, S57K
notes: FLAG3-His6 tagged
B30: T0263018B11 S31T (VHH, name in Kabat numbering)
VHH: B1 VHH with P31T
notes: FLAG3-His6 tagged
B31: T0263018B11 S52E (VHH, name in Kabat numbering)
VHH: B1 VHH with P31S, S52E
notes: FLAG3-His6 tagged

Biological target: T1, cyno FcRn/b2M (cyno, UniProt Q8SPV9 24-297; Q8SPW0 21-119, biotinylated)
T1 construct: bought recombinant biotinylated protein (Immunitrack ITF05 or ACRO FCM-C82W5); also called cFcRn; cFcRn/cb2M
T1 sequence (Q8SPV9 24-297 limits assumed, chain 1 of 2): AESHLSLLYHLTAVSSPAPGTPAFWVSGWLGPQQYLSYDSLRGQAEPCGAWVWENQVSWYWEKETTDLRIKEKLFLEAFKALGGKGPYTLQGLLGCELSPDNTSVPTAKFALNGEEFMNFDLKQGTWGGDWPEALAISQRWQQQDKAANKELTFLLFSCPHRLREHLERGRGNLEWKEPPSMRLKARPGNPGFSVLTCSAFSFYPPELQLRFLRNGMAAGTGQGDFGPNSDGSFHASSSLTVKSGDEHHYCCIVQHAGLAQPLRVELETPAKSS
T1 sequence (Q8SPW0 21-119 limits assumed, chain 2 of 2): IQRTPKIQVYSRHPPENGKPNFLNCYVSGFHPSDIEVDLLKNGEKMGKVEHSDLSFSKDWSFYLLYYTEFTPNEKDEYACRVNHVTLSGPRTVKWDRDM
Experiment: SPR pH 6.0;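 note: surface plasmon resonance kinetics at 25 °C, diluted periplasmic extracts injected over immobilized ligand surfaces, 120 s association then 600–3600 s dissociation, running buffer containing 150 mM NaCl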
Experimental: (§1) All kinetic measurements have been performed on ProteOn XPR36 (BioRad Laboratories, Inc.), MASS-2 (Sierra sensors, Gmbh) or SPR-32 (Bruker Corporation). […] The phytip purified periplasmic extracts were diluted 1:10 in running buffer (CPA+150 mM NaCl+0.005% Tw20 at pH 5.5, pH 6.0 or pH 7.4) and injected over the ligand surfaces (association: 120 s at 45 μL/min; dissociation: 600s-3600 s at 45 μL/min). Experiments were carried out at 25° C.

| koff | Binder |
| --- | --- |
| 0.00073 s⁻¹ | B1 |
| 0.0013 s⁻¹ | B2 |
| 0.016 s⁻¹ | B3 |
| 0.00052 s⁻¹ | B4 |
| 0.0003 s⁻¹ | B5 |
| 0.001 s⁻¹ | B6 |
| 0.00016 s⁻¹ | B7 |
| 0.0006 s⁻¹ | B8 |
| 0.00077 s⁻¹ | B9 |
| 0.0015 s⁻¹ | B10 |
| 0.0018 s⁻¹ | B11 |
| 0.00079 s⁻¹ | B12 |
| 0.001 s⁻¹ | B13 |
| 0.00045 s⁻¹ | B14 |
| 0.0013 s⁻¹ | B15 |
| 0.0008 s⁻¹ | B16 |

| koff | Binder |
| --- | --- |
| 0.0004 s⁻¹ | B17 |
| 0.001 s⁻¹ | B18 |
| 0.0012 s⁻¹ | B19 |
| 0.0021 s⁻¹ | B20 |
| 0.0022 s⁻¹ | B21 |
| 0.0031 s⁻¹ | B22 |
| 0.00043 s⁻¹ | B23 |
| 0.0017 s⁻¹ | B24 |
| 0.0025 s⁻¹ | B25 |
| 0.00027 s⁻¹ | B26 |
| 0.0055 s⁻¹ | B27 |
| 0.0012 s⁻¹ | B28 |
| 0.0018 s⁻¹ | B29 |
| 0.0003 s⁻¹ | B30 |
| 0.0023 s⁻¹ | B31 |

Biological target: T2, human FcRn/b2M (human, UniProt P61769 21-119, biotinylated)
T2 construct: bought recombinant biotinylated protein (ACRO FCM-H82W4 or Immunitrack ITF01); also called hFcRn; hFcRn/hb2M
Experiment: SPR pH 6.0;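 note: surface plasmon resonance kinetics at 25 °C, diluted periplasmic extracts injected over immobilized ligand surfaces, 120 s association then 600–3600 s dissociation, running buffer containing 150 mM NaCl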
Experimental: as §1

| koff | Binder |
| --- | --- |
| 0.00088 s⁻¹ | B1 |
| 0.0016 s⁻¹ | B2 |
| 0.023 s⁻¹ | B3 |
| 0.00083 s⁻¹ | B4 |
| 0.00054 s⁻¹ | B5 |
| 0.0013 s⁻¹ | B6 |
| 0.00038 s⁻¹ | B7 |
| 0.00088 s⁻¹ | B8 |
| 0.00087 s⁻¹ | B9 |
| 0.0023 s⁻¹ | B10 |
| 0.0022 s⁻¹ | B11 |
| 0.0012 s⁻¹ | B12 |
| 0.0013 s⁻¹ | B13 |
| 0.00075 s⁻¹ | B14 |
| 0.0011 s⁻¹ | B15 |
| 0.0015 s⁻¹ | B16 |

| koff | Binder |
| --- | --- |
| 0.00039 s⁻¹ | B17 |
| 0.0013 s⁻¹ | B18 |
| 0.0016 s⁻¹ | B19 |
| 0.0027 s⁻¹ | B20 |
| 0.0032 s⁻¹ | B21 |
| 0.0044 s⁻¹ | B22 |
| 0.00068 s⁻¹ | B23 |
| 0.0019 s⁻¹ | B24 |
| 0.0024 s⁻¹ | B25 |
| 0.00048 s⁻¹ | B26 |
| 0.0067 s⁻¹ | B27 |
| 0.0032 s⁻¹ | B28 |
| 0.0021 s⁻¹ | B29 |
| 0.00052 s⁻¹ | B30 |
| 0.0026 s⁻¹ | B31 |

Biological target: T1, cyno FcRn/b2M
Experiment: SPR off-rate; pH 7.4 vs pH 6.0;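 note: surface plasmon resonance with diluted periplasmic extracts flowed over ligand surfaces, 120 s association and 600–3600 s dissociation at 25 °C, running buffer containing 150 mM NaCl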
Experimental: as §1

| kd ratio pH 7.4/6.0 | Binder |
| --- | --- |
| 59 | B1 |
| 36 | B2 |
| 24 | B3 |
| 44 | B4 |
| 71 | B5 |
| 37 | B6 |
| 79 | B7 |
| 51 | B8 |
| 51 | B9 |
| 61 | B10 |
| 38 | B11 |
| 60 | B12 |
| 47 | B13 |
| 28 | B14 |
| 37 | B15 |
| 54 | B16 |

| kd ratio pH 7.4/6.0 | Binder |
| --- | --- |
| 27 | B17 |
| 45 | B18 |
| 49 | B19 |
| 45 | B20 |
| 48 | B21 |
| 61 | B22 |
| 51 | B23 |
| 25 | B24 |
| 25 | B25 |
| 48 | B26 |
| 26 | B27 |
| 69 | B28 |
| 25 | B29 |
| 60 | B30 |
| 20 | B31 |

Biological target: T2, human FcRn/b2M
Experiment: SPR off-rate; pH 7.4 vs pH 6.0;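 note: surface plasmon resonance with diluted periplasmic extracts flowed over ligand surfaces, 120 s association and 600–3600 s dissociation at 25 °C, running buffer containing 150 mM NaCl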
Experimental: as §1

| kd ratio pH 7.4/6.0 | Binder |
| --- | --- |
| 49 | B1 |
| 35 | B2 |
| 20 | B3 |
| 42 | B4 |
| 53 | B5 |
| 34 | B6 |
| 43 | B7 |
| 39 | B8 |
| 41 | B9 |
| 56 | B10 |
| 30 | B11 |
| 51 | B12 |
| 42 | B13 |
| 26 | B14 |
| 27 | B15 |
| 41 | B16 |

| kd ratio pH 7.4/6.0 | Binder |
| --- | --- |
| 32 | B17 |
| 39 | B18 |
| 39 | B19 |
| 30 | B20 |
| 46 | B21 |
| 32 | B22 |
| 43 | B23 |
| 24 | B24 |
| 24 | B25 |
| 36 | B26 |
| 22 | B27 |
| 54 | B28 |
| 25 | B29 |
| 46 | B30 |
| 16 | B31 |

Biological target: T1, cyno FcRn/b2M
Experiment: SPR pH 7.4;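 note: surface plasmon resonance kinetics, periplasmic extracts diluted 1:10 flowed over immobilized target at 25 °C, 120 s association then 600–3600 s dissociation, buffer with 150 mM NaCl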
Experimental: as §1

| koff | Binder |
| --- | --- |
| 0.043 s⁻¹ | B1 |
| 0.046 s⁻¹ | B2 |
| 0.38 s⁻¹ | B3 |
| 0.023 s⁻¹ | B4 |
| 0.021 s⁻¹ | B5 |
| 0.038 s⁻¹ | B6 |
| 0.013 s⁻¹ | B7 |
| 0.031 s⁻¹ | B8 |
| 0.039 s⁻¹ | B9 |
| 0.091 s⁻¹ | B10 |
| 0.068 s⁻¹ | B11 |
| 0.047 s⁻¹ | B12 |
| 0.047 s⁻¹ | B13 |
| 0.013 s⁻¹ | B14 |
| 0.048 s⁻¹ | B15 |
| 0.043 s⁻¹ | B16 |

| koff | Binder |
| --- | --- |
| 0.011 s⁻¹ | B17 |
| 0.045 s⁻¹ | B18 |
| 0.059 s⁻¹ | B19 |
| 0.095 s⁻¹ | B20 |
| 0.11 s⁻¹ | B21 |
| 0.19 s⁻¹ | B22 |
| 0.022 s⁻¹ | B23 |
| 0.042 s⁻¹ | B24 |
| 0.064 s⁻¹ | B25 |
| 0.013 s⁻¹ | B26 |
| 0.14 s⁻¹ | B27 |
| 0.083 s⁻¹ | B28 |
| 0.044 s⁻¹ | B29 |
| 0.018 s⁻¹ | B30 |
| 0.047 s⁻¹ | B31 |

Biological target: T2, human FcRn/b2M
Experiment: SPR pH 7.4;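 note: surface plasmon resonance kinetics, periplasmic extracts diluted 1:10 flowed over immobilized target at 25 °C, 120 s association then 600–3600 s dissociation, buffer with 150 mM NaCl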
Experimental: as §1

| koff | Binder |
| --- | --- |
| 0.043 s⁻¹ | B1 |
| 0.055 s⁻¹ | B2 |
| 0.44 s⁻¹ | B3 |
| 0.035 s⁻¹ | B4 |
| 0.029 s⁻¹ | B5 |
| 0.044 s⁻¹ | B6 |
| 0.017 s⁻¹ | B7 |
| 0.034 s⁻¹ | B8 |
| 0.036 s⁻¹ | B9 |
| 0.13 s⁻¹ | B10 |
| 0.067 s⁻¹ | B11 |
| 0.063 s⁻¹ | B12 |
| 0.055 s⁻¹ | B13 |
| 0.02 s⁻¹ | B14 |
| 0.03 s⁻¹ | B15 |
| 0.062 s⁻¹ | B16 |

| koff | Binder |
| --- | --- |
| 0.012 s⁻¹ | B17 |
| 0.051 s⁻¹ | B18 |
| 0.062 s⁻¹ | B19 |
| 0.081 s⁻¹ | B20 |
| 0.15 s⁻¹ | B21 |
| 0.14 s⁻¹ | B22 |
| 0.029 s⁻¹ | B23 |
| 0.045 s⁻¹ | B24 |
| 0.058 s⁻¹ | B25 |
| 0.018 s⁻¹ | B26 |
| 0.15 s⁻¹ | B27 |
| 0.18 s⁻¹ | B28 |
| 0.053 s⁻¹ | B29 |
| 0.024 s⁻¹ | B30 |
| 0.042 s⁻¹ | B31 |

Source: patent US20240132624A1 (Ablynx, published 2024)
